Laboratory results taken from the nanobody polyreactivity screen of Harvey et al. (2022).

Experiment: yeast display, Sf9 membrane polyspecificity reagent, FACS + sequencing; frameworks hold sequencing errors
Outline: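 Polyreactivity labels are assigned by the sorting gate from which each nanobody was recovered. The gates were low and high (top ~1%), set on anti-HA fluorescence for expression and streptavidin fluorescence for reagent binding. Before sorting, galactose-induced (36–48 hours) yeast display cells were stained for 1 hour at 4 °C with 10% biotinylated, detergent-solubilized Sf9 membrane reagent.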

Row | Sequence | polyreactivity (PSR sort gate)
1 | QVQLVESGGGLVQAGGSLRLSCAASGRTFRVYAMGWYRQAPGKERELVAAITRGGSTYYADSVKGRFTISRDNAKNTVYLQMNSLKPEDTAVYYCATYSHALRYDYWGQGTQVTVSS | high polyreactivity
2 | QVQLVESGGGLVQAGGSLRLSCAASGRTFRVYTMGWYRPAPGKERELVAVISGRGGSTSYADSVKGRFTISRDNAKNSVYVQINSLKPEDTAVYYCAALYTQSNSASMYYWGQGTQVTVSS | high polyreactivity
3 | QVQLVESGGGLVQAGGSLRLSCAASGRTFRWNAMGLYRQAPGKERELVADITSGGSTYYADSVKGRFTISSDNAKNTVYLQMNSLKPEDTAVYYCKAYYYYQFPAPASKYDYWGQGTQVTVSS | high polyreactivity
4 | QVQLVESGGGLVQAGGSLRLSCAASGRTFRWNAMGWYRQAPGKERELVAAITKSGGSTYYADSVKGRFTISRDNAKNTVYLQMNSLIPEDTAVYYCNAEPPLYPWAYPSDSYNFWGQGTQVTVSS | low polyreactivity
5 | QVQLVESGGGLVQAGGSLRLSCAASGRTFRWYAMGWSRPAPGKERELVASISRGGSKSYADSVKGRFTISRDNAKNTVYLQMNSLKPEDTAVYYCNAKYRLEMDLGQGTQVTVSS | high polyreactivity
6 | QVQLVESGGGLVQAGGSLRLSCAASGRTFRWYAMGWYRQAPGKERELVAAIRRSGGGTYYADSVKGRFTISRDNAKNTVYLQMNSLKPEDTAVYYCNTDYPVYQRGVISDGFDYWGQGTQVTVSS | low polyreactivity
7 | QVQLVESGGGLVQAGGSLRLSCAASGRTFRWYPMGWYRQAPGKERELVAAINPGGSTNYADSVKGRFTISRDNANNTVDLQMNSLKPEDSAVYYCNAAGYDALTQNYYWGQGTQVTVSS | low polyreactivity
8 | QVQLVESGGGLVQAGGSLRLSCAASGRTFRYAMGWYRQAPGKERELVAAITGSGGSTYYADSVKGRFTISRDNAKNTVYLQMNSLKPEDTAVYYCAAARYDYWGQGTQVTVSS | high polyreactivity
9 | QVQLVESGGGLVQAGGSLRLSCAASGRTFRYKAMGWYRQAPGKERELVAAITWNGGRTYYADSVKGRFTISRDNAKNTVYLQMNSLKPEDTAVYYCAAQGTRVDRYPKYDYWGQGTQVTVSS | high polyreactivity
10 | QVQLVESGGGLVQAGGSLRLSCAASGRTFRYNALGWYRQAPGKETELVAAISGRGSSTYYADSVKGRFTISRDNAKNTVYLQMNSLKPEDTAVYYCAALPASVRRPGWHDYWGQGTEVTVSS | high polyreactivity
11 | QVQLVESGGGLVQAGGSLRLSCAASGRTFRYNAMGWYRQAPGKERELVAAITWSGGSTYYADSVKGRFTISRDNAKNTVYLQMNSLKPEDTAVYYCNKVTWHQGHDYWGQGTQVTVSS | low polyreactivity
12 | QVQLVESGGGLVQAGGSLRLSCAASGRTFRYNAMGWYRQAPGKERELVASITSGGSTNYADSVKGRFTISRDNAKNTVYLQMNSLIPEDTAVYYCAADERRPYWQHSIGSGRPFDYWGQGTQVTVSS | low polyreactivity
13 | QVQLVESGGGLVQAGGSLRLSCAASGRTFRYNAMGWYRQAPGKERELVATISSSGGSTSYADSVKGRFTISRDNAKNTVYLQMNSLKPEDTAVYYCAADEWGVRSEYDYWGQGTQVTVSS | low polyreactivity
14 | QVQLVESGGGLVQAGGSLRLSCAASGRTFRYNTMGWYRQAPGKERELVAAITWSGGRTYYADSVKGRFTISRDNAKNTVYLQMNSLKPEDTAVYYCNADVPYSRSIYGFYYWGQGTQVTVSS | high polyreactivity
15 | QVQLVESGGGLVQAGGSLRLSCAASGRTFRYNVMGWYRQAPGKERELVASISRISGSTYYADSVKGRFTISRDNAKNTVYLQMNSLKPEDTADYYARAAGEYDYWGQGTQVTVSS | high polyreactivity
16 | QVQLVESGGGLVQAGGSLRLSCAASGRTFRYYAMGWYRQAPGKERELVAAISQTGARTYYADSVKGRFTISRDNAKNTVYLQMNSLKPEDTAVYYCNAYSRSGHQSDGYDYWGQGTQVTVSS | high polyreactivity
17 | QVQLVESGGGLVQAGGSLRLSCAASGRTFRYYAMGWYRQAPGKERELVAAISSGGNTYYADSVKGRFTISRDNAKNTVYLQMNSLKPEDTAVYYCAAKVHYSAHRFGYWGQGTQVTVSS | high polyreactivity
18 | QVQLVESGGGLVQAGGSLRLSCAASGRTFRYYAMGWYRQAPGKERELVAAISSGGSTNYADSVKGRFTISRDNAKITVYLQMNSLKPEDTAVYYCAALWSGNKFNYWGQGTQVTVSS | low polyreactivity
19 | QVQLVESGGGLVQAGGSLRLSCAASGRTFRYYAMGWYRQAPGKERELVAAISSSGDRTYYADSVKGRFTISRDNAKKTVYLQMNSLKPEDTAVYYCAADRGARGDYWGQGTQVTVSS | high polyreactivity
20 | QVQLVESGGGLVQAGGSLRLSCAASGRTFRYYAMGWYRQAPGKERELVAAITSGGSTYYADSVKGRFTISRDNAKNTVYLQMNSLKPEDTAVYYCAAVPAGLWATYPQFRYGYWGQGTQVTVSS | high polyreactivity
21 | QVQLVESGGGLVQAGGSLRLSCAASGRTFRYYAMGWYRQAPGKERELVADISWSGGRTTYADSVKGRFTISRDNAKNTVYLQMNSLKPEDTAVYYCAKVLYYPSNDYWGQGSQVTVSS | high polyreactivity
22 | QVQLVESGGGLVQAGGSLRLSCAASGRTFRYYAMGWYRQAPGKERELVATISSGGSTNYADSVKGRFTISRDNAKNTVYLQMNSLKPEDTAVYYCNARRSTDPARYYWGQGTQVTVSS | high polyreactivity

Row | Sequence | polyreactivity (PSR sort gate)
23 | QVQLVESGGGLVQAGGSLRLSCAASGRTFRYYTMGWYRPAPGKEREFVAAISSTGGTYYADSVKGRFTISRDNAKNTVYLQMNSLKPEDTAVYYCAATFIQVVVNVQLYDYDYWGQGTQVTVSS | low polyreactivity
24 | QVQLVESGGGLVQAGGSLRLSCAASGRTFRYYTMGWYRQAPGKEREFVAAISSTGGTYYADSVKGRFTISRDNAKNTVYLQMNSQKPEDTAVYYCAATVIQVVVNVQLYDYDYWGQGTEVTVSS | low polyreactivity
25 | QVQLVESGGGLVQAGGSLRLSCAASGRTFRYYTMGWYRQAPGKERELVASISWSGGSTYYADSVKGRFTISRDNAKNTVYLQMNSLKPEDTAVYYCNAVYGYRGVTNMDYWGQGTQVTVSS | high polyreactivity
26 | QVQLVESGGGLVQAGGSLRLSCAASGRTFRYYVMGWYIQAPAKERELVARISYSAGSTYYADSVKGRFTISRDNAKKTVYFQMNSLKPEDTAVDYCNAGGNFKDYGHYYWGQCTQVTVSS | high polyreactivity
27 | QVQLVESGGGLVQAGGSLRLSCAASGRTFRYYVMGWYRPATGTERELVAGISGSGGNTYYADSVKGRFTISRDNAKNTVYLQMNSLKPEDTAVYYCNAYSPYAEYDYWGQGTQVTVSS | high polyreactivity
28 | QVQLVESGGGLVQAGGSLRLSCAASGRTFRYYVMGWYRQAPGKERELVASITWRGTSTYYADSVKGRFTISRDNAKNTVYLQMNSLKPEDTAVYYCNAQGVYFRWSGYDYWGQGTQVTVSS | high polyreactivity
29 | QVQLVESGGGLVQAGGSLRLSCAASGRTFRYYVMGWYRQAPGKERELVATITSNGDSTYYADSVKGRFTISRDNAKNTVYLQMNSLKPEDTAVYYCAVRWRDYRGSYRGFEYWGQGTQVTVSS | high polyreactivity
30 | QVQLVESGGGLVQAGGSLRLSCAASGRTFSAYAMGWYRQAPGKERELVAAISRRGGSTYYADSVKGRFTISRDNAKNTVYLQMNSLKPEDTAVYYCAAKIYYRSRAEMDWGQGTQVTVSS | high polyreactivity
31 | QVQLVESGGGLVQAGGSLRLSCAASGRTFSDNAMGWYRQAPGKERELVAASSRSGGRTYYADSVKGRFTISRDNAKNTVYLQMNSLKPEDTAVYYCAAAPSVSGTRLYEYWGQGTQVTVSS | high polyreactivity
32 | QVQLVESGGGLVQAGGSLRLSCAASGRTFSDYAMGWYRQAPAKERELVAAISKSGGRTYYADSVKGRFTISRDNAKNTVYLQMNSLKPEDTAVYYCAADPLTELAFYSWGQGTQVTVSS | high polyreactivity
33 | QVQLVESGGGLVQAGGSLRLSCAASGRTFSGNAMGWYRQAPGKERELVASISTSTDGTYYADSVKGRFTISRDNAKNTVYLQMNSLKAEDTAVYYCTTTTYHWYYYRWEIFDYRGQGTQVTVSS | low polyreactivity
34 | QVQLVESGGGLVQAGGSLRLSCAASGRTFSGNTMGWYRQAPGKERELVAVINSGTRTYYADSVKGRFTISRDNAKNTVYLHMNSLKPEDTAVYYCATRSKSPSTKYGYWGQGTQVTVSS | high polyreactivity
35 | QVQLVESGGGLVQAGGSLRLSCAASGRTFSGYAMGWYRQAPGKERELVAAIRWSGGSTYYADSVKGRFTISRDNAKNTVYLQMNSLKPEDTAVYYCATRDYYYRYGYWGQGTQVTVSS | high polyreactivity
36 | QVQLVESGGGLVQAGGSLRLSCAASGRTFSGYAMGWYRQAPGKERELVAGITWNGGRTYYADSVKGRFTISRDNAKNTVSLQMNSLKPEDTAVYYCNKLGAVYPKYGYWGQGTQVTVSS | high polyreactivity
37 | QVQLVESGGGLVQAGGSLRLSCAASGRTFSGYAMGWYRQAPGKERELVASITYSGGSTYYADSVKGRFTISRDNAKNTVYLQMNSLKPEDTAVYYCNARSSGKGRSNAYYKGHGYWGQGTQVTVSS | high polyreactivity
38 | QVQLVESGGGLVQAGGSLRLSCAASGRTFSGYAMVWYRQAPGKERELVAAISSGGGSTYYADSVKGRFTISRDNAKNTVYLQMNSLKPEDTAVYYCAADGYPGDYDYWGQGTQVTVSS | low polyreactivity
39 | QVQLVESGGGLVQAGGSLRLSCAASGRTFSHYAMGSYRQAPGKEREFVADITRSGGSTYYADSVKGRFTISRDNAKNTVYLQMNSLKPEDTAVYYCNAESYFEIYDYWGQGTQVTVSS | high polyreactivity
40 | QVQLVESGGGLVQAGGSLRLSCAASGRTFSHYAMGWYRQAPGKERELVAAINTRTGTTYYADSVKGRFTISRDNAKNTVYLQMNSLKPEDTAVYYCNAVPYYSYQGWILVGDYDYWGQGTQVTVSS | low polyreactivity
41 | QVQLVESGGGLVQAGGSLRLSCAASGRTFSKYAMAWYRQAPGKERELVAAISSSGGSTYYADSVKGRFTISRDNAKNTVYLQMNSLKPEDTAVYYCATRVYPRYWFTTRYRYDYWGQGTQVTVSS | low polyreactivity
42 | QVQLVESGGGLVQAGGSLRLSCAASGRTFSKYAMGWYRQAPGKERELVAAISSGGSTNYADSVKGRFTISRDNAKNTVYLQMISLKPEDTAVYYFARTTNWRHSYAYYYLHGHDYWGQGTQVTVSS | high polyreactivity
43 | QVQLVESGGGLVQAGGSLRLSCAASGRTFSKYAMGWYRQAPGKERELVAAITRSGSSTYYADSVKGRFTISRDNAKNTVYLQMNCLKPEDTAVYYCAADRYLRSSGSAPDYGYWGQGTQVTVSS | low polyreactivity
